The values that follow come from patent CN115947850A (BEIJING DONGFANG BIOTECH CO LTD, dated 2023).

Assay [1] deals with T1, LILRB4 on the surface of human monocytic leukemia cells (THP-1) (human, UniProt Q8NHJ6 22-448). Kind of assay: cell-based or functional assay.
The target in another assay is LILRA5 (UniProt A6NI73 42-268, limits assumed). The experiment in a line: ELISA, coated LILR protein 100 ng/well. (ELISA stands for enzyme-linked immunosorbent assay.)
In another assay the target is LILRA6 (UniProt Q6PI73 24-447, limits assumed). The experiment in a line: ELISA, coated LILR protein 100 ng/well.
Sequence of LILRA6 (Q6PI73 24-447 limits assumed): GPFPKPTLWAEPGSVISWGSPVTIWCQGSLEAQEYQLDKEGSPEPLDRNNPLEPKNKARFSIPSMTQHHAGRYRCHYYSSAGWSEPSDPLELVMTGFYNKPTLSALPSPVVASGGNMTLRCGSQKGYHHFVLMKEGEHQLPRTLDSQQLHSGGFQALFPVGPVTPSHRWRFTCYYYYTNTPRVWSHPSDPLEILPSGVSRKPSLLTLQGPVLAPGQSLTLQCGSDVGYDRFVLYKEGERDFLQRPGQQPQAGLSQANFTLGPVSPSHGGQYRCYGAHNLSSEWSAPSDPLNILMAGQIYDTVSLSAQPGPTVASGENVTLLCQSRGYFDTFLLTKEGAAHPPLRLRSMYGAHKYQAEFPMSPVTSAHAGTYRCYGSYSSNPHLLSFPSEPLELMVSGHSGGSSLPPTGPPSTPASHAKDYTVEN
The target of the next assay is LILRB1 (UniProt Q8NHL6 24-461, limits assumed). Kind of assay: ELISA, coated LILR protein 100 ng/well.
Sequence of LILRB1 (Q8NHL6 24-461 limits assumed): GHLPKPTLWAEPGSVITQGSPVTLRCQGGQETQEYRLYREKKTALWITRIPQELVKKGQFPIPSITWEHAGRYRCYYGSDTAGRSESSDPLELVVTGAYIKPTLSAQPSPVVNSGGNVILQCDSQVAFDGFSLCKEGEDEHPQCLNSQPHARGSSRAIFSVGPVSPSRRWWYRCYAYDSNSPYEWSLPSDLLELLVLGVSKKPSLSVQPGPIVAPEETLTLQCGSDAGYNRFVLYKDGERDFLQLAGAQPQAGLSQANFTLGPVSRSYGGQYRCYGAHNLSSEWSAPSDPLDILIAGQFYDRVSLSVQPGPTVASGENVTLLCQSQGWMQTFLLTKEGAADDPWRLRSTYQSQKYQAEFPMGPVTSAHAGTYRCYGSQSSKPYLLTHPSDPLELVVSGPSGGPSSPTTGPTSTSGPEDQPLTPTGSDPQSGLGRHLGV
The next assay has as its target LILRB2 (UniProt Q8N423 22-460, limits assumed). The experiment in a line: ELISA, coated LILR protein 100 ng/well.
In another assay the target is LILRB3 (UniProt O75022 24-443, limits assumed). Kind of assay: ELISA, coated LILR protein 100 ng/well.
Sequence of LILRB3 (O75022 24-443 limits assumed): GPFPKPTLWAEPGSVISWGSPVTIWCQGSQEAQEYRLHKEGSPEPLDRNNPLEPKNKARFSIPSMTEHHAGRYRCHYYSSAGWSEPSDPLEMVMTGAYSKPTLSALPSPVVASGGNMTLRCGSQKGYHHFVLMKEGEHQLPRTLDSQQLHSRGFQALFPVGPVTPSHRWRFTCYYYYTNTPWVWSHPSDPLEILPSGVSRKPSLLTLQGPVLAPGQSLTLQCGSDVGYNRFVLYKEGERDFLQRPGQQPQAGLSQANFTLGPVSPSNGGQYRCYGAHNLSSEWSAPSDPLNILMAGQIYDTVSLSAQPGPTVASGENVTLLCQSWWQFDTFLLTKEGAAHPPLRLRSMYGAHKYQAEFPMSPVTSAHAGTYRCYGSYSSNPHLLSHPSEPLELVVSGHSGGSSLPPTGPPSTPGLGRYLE
A further assay deals with LILRB5 (UniProt O75023 24-458, limits assumed). Kind of assay: ELISA, coated LILR protein 100 ng/well.
Sequence of LILRB5 (O75023 24-458 limits assumed): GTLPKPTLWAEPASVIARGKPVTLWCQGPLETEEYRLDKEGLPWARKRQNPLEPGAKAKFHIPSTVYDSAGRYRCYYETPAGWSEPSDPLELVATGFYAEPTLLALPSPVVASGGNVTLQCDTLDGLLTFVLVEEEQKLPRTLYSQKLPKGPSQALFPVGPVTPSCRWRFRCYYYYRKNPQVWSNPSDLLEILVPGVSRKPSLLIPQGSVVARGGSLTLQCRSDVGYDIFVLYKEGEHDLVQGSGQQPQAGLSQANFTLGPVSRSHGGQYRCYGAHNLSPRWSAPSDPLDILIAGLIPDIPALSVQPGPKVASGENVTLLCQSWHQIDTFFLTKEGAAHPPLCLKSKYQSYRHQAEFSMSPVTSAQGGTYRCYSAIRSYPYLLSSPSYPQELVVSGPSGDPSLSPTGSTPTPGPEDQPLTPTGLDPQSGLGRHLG
Another assay concerns the target LILRA1 (UniProt O75019 17-461, limits assumed). The experiment in a line: ELISA, coated LILR protein 100 ng/well.
A further assay deals with LILRA2 (UniProt Q8N149 24-449, limits assumed). The experiment in a line: ELISA, coated LILR protein 100 ng/well.
Sequence of LILRA2 (Q8N149 24-449 limits assumed): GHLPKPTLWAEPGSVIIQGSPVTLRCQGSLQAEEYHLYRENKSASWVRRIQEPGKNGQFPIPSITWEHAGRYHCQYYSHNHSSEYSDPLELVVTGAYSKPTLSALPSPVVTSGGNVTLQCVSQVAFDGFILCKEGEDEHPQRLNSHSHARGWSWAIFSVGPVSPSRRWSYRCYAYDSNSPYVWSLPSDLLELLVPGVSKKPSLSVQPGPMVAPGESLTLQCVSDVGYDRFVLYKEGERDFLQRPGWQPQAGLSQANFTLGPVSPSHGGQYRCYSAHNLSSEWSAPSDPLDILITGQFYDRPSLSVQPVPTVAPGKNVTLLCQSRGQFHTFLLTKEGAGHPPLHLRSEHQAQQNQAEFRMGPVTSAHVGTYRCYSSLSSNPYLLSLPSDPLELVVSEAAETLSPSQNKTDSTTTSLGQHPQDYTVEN
For a further assay, the target named is LILRA3 (UniProt Q8N6C8 24-439). Kind of assay: ELISA, coated LILR protein 100 ng/well.
Sequence of LILRA3 (Q8N6C8 24-439 limits assumed): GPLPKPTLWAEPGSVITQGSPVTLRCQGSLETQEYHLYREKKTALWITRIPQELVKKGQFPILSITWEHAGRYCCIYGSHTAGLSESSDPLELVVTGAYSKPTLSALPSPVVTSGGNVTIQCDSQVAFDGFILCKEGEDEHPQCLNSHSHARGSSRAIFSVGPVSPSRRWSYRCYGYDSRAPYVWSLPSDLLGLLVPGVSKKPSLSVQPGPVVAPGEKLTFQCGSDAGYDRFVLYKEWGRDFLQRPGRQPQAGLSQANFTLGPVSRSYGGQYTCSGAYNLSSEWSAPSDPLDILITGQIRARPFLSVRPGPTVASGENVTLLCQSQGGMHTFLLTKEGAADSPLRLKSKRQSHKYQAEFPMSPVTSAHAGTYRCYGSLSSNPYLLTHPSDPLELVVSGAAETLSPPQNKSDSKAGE
A further assay concerns the target LILRA4 (UniProt P59901 24-446, limits assumed). The experiment in a line: ELISA, coated LILR protein 100 ng/well.
For assay [2], the target named is T1, LILRB4 on the surface of human …. The experiment in a line: flow cytometry on THP-1 cells, FITC goat anti-mouse IgG detection. For orientation: Flow cytometry measures light scatter and fluorescence of single cells or particles in a stream.
The target in assay [3] is T2, human LILRB4 extracellular domain (LILRB4抗原, LILRB4蛋白胞外段) (human, UniProt Q8NHJ6 22-259).
T2 construct: extracellular domain; also called 人LILRB4
Kind of assay: ELISA, coated LILRB4 100 ng/well, goat anti-mouse IgG-HRP detection.

The target in assay [4] is T1, LILRB4 on the surface of human …. Kind of assay: flow cytometry competition on THP-1 cells; competitor FITC-labelled ApoE at 0.4 μg/mL.

Sequence of LILRA5 (A6NI73 42-268 limits assumed): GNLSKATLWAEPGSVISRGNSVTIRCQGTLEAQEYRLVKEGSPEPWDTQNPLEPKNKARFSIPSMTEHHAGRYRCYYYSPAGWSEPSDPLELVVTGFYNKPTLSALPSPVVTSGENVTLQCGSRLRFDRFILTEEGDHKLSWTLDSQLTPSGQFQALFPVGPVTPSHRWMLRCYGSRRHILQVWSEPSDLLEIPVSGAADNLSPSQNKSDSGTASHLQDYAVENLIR
Sequence of LILRA1 (O75019 17-461 limits assumed): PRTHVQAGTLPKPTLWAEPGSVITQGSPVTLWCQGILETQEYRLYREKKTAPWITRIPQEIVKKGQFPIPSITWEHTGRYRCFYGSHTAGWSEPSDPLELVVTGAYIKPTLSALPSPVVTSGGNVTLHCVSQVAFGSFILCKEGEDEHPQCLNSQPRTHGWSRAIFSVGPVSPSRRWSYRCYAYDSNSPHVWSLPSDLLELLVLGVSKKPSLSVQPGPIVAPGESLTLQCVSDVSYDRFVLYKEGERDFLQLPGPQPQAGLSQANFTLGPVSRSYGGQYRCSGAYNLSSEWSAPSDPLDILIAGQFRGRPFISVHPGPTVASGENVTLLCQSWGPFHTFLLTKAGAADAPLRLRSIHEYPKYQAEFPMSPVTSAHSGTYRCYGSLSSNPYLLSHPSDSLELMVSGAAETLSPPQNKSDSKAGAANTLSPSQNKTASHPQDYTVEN
Sequence of LILRB2 (Q8N423 22-460 limits assumed): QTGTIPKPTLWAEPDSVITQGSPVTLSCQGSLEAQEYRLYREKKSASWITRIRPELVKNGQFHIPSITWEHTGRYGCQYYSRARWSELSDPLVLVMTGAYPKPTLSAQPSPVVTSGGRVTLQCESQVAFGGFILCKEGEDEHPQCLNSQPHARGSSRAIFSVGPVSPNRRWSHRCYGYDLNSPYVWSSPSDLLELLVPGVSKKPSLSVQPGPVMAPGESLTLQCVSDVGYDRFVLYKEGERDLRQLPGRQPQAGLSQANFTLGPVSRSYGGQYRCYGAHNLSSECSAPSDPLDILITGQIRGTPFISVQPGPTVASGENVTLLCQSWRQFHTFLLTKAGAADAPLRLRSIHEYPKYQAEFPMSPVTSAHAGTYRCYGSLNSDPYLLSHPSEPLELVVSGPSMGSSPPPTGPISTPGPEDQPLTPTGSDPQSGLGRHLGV
Sequence of LILRA4 (P59901 24-446 limits assumed): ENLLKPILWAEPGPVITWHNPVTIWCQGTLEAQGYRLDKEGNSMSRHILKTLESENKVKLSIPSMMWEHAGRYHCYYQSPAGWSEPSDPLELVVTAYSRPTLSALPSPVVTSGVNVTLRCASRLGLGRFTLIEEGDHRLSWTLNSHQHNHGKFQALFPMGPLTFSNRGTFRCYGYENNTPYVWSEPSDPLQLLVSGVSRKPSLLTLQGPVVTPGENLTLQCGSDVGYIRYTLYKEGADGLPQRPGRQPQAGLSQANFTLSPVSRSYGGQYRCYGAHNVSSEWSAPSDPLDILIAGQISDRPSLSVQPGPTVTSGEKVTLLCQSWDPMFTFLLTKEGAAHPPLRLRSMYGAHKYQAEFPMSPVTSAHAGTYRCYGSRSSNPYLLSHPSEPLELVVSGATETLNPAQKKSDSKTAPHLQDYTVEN

B1: ME-Ⅰ anti-LILRB4 monoclonal antibody (mouse IgG1 / Cκ) (antibody, V domains shown)
VH: EVQLEQSGAEVVKPGASVKLSCKASGYTFISYWMHWVKQRPGQGLEWIGEINPTNGRTNYNEKFKSKATLTVDKSSGTAYMQLSSLTSEDSAVYYCARWGQLGLREGYYAVDYWGQGTSVTVSS
VL: DIVLTQSPSSLSASLGDRVTISCRASQDISNYLNWYQQNPNGTVKLLIYYTSRLHSGVPSRFSGSGSGTDYSLTISNLEQEDIATYFCQQGDTLPPTFGGGTKLEIKA
notes: also called 单克隆抗体ME-Ⅰ; ME-Ⅰ抗LILRB4单克隆抗体
Take B1: the “IC50 of inhibition of ARG1 secretion by THP-1 cells in the presence of ApoE (arginase activity kit)” value in assay [1] amounted to 330 µg/mL. Further, the binding result with LILRA5, with LILRA6, with LILRB1, with LILRB2, with LILRB3 and with LILRB5 was “no binding (tested: 50μg/mL)” each time. The binding result with LILRA1, with LILRA2, with LILRA3 and with LILRA4 was “no binding (tested: 50μg/mL)” in each case. Besides, the values for the EC50 in assay [2] and in assay [3] were 5.48 µg/mL and 0.375 µg/mL, respectively. The IC50 (usually the concentration that gives 50% inhibition) in assay [4] was found to be 9.69 µg/mL.
